# Assay results from IntAct's records for PubMed 20664522.
# B1: CAP-Gly domain-containing linker protein 1 (Homo sapiens), P30622 (parent)
# chain: MSMLKPSGLKAPTKILKPGSTALKTPTAVVAPVEKTISSEKASSTPSSETQEEFVDDFRVGERVWVNGNKPGFIQFLGETQFAPGQWAGIVLDEPIGKNDGSVAGVRYFQCEPLKGIFTRPSKLTRKVQAEDEANGLQTTPASRATSPLCTSTASMVSSSPSTPSNIPQKPSQPAAKEPSATPPISNLTKTASESISNLSEAGSIKKGERELKIGDRVLVGGTKAGVVRFLGETDFAKGEWCGVELDEPLGKNDGAVAGTRYFQCQPKYGLFAPVHKVTKIGFPSTTPAKAKANAVRRVMATTSASLKRSPSASSLSSMSSVASSVSSRPSRTGLLTETSSRYARKISGTTALQEALKEKQQHIEQLLAERDLERAEVAKATSHVGEIEQELALARDGHDQHVLELEAKMDQLRTMVEAADREKVELLNQLEEEKRKVEDLQFRVEEESITKGDLEQKSQISEDPENTQTKLEHARIKELEQSLLFEKTKADKLQRELEDTRVATVSEKSRIMELEKDLALRVQEVAELRRRLESNKPAGDVDMSLSLLQEISSLQEKLEVTRTDHQREITSLKEHFGAREETHQKEIKALYTATEKLSKENESLKSKLEHANKENSDVIALWKSKLETAIASHQQAMEELKVSFSKGLGTETAEFAELKTQIEKMRLDYQHEIENLQNQQDSERAAHAKEMEALRAKLMKVIKEKENSLEAIRSKLDKAEDQHLVEMEDTLNKLQEAEIKVKELEVLQAKCNEQTKVIDNFTSQLKATEEKLLDLDALRKASSEGKSEMKKLRQQLEAAEKQIKHLEIEKNAESSKASSITRELQGRELKLTNLQENLSEVSQVKETLEKELQILKEKFAEASEEAVSVQRSMQETVNKLHQKEEQFNMLSSDLEKLRENLADMEAKFREKDEREEQLIKAKEKLENDIAEIMKMSGDNSSQLTKMNDELRLKERDVEELQLKLTKANENASFLQKSIEDMTVKAEQSQQEAAKKHEEEKKELERKLSDLEKKMETSHNQCQELKARYERATSETKTKHEEILQNLQKTLLDTEDKLKGAREENSGLLQELEELRKQADKAKAAQTAEDAMQIMEQMTKEKTETLASLEDTKQTNAKLQNELDTLKENNLKNVEELNKSKELLTVENQKMEEFRKEIETLKQAAAQKSQQLSALQEENVKLAEELGRSRDEVTSHQKLEEERSVLNNQLLEMKKRESKFIKDADEEKASLQKSISITSALLTEKDAELEKLRNEVTVLRGENASAKSLHSVVQTLESDKVKLELKVKNLELQLKENKRQLSSSSGNTDTQADEDERAQESQIDFLNSVIVDLQRKNQDLKMKVEMMSEAALNGNGDDLNNYDSDDQEKQSKKKPRLFCDICDCFDLHDTEDCPTQAQMSEDPPHSTHHGSRGEERPYCEICEMFGHWATNCNDDETF
# B2: CAP-Gly domain-containing linker protein 1 (Rattus norvegicus (Rat)), Q9JK25 (parent)
# chain: MSMLKPSGLKAPTKILKPGSTALKTPAAAAAPLEKTVPSEKASGPPSSETQEEFVDDFRVGERVWVNGNKPGFIQFLGETQFAPGQWAGIVLDEPIGKNDGSVAGVRYFQCEPLKGIFTRPSKLTRKVQAEDEANGLQTAHARAASPLSTAAATMVSSSPATPSNIPQKPSQPVAKETSATPQISNLTKTASESISNLSEAGSVKKGERELKIGDRVLVGGTKAGVVRFLGETDFAKGEWCGVELDEPLGKNDGAVAGTRYFQCQPKYGLFAPVHKVTKIGFPSTTPAKAKAAAVRRVMATTPASLKRSPSASSLSSMSSVASSVSSKPSRTGLLTETSSRYARKISGTTALQEALKEKQQHIEQLLAERDLERAEVAKATSHVGEIEQELALARDGHDQHVLELEAKMDQLRTMVEAADREKVELLNQLEEEKRKVEDLQFRVEEESITKGDLETQTKLEHARIKELEQSLLFEKTKADKLQRELEDTRVATVSEKSRIMELEKDLALRVQEVAELRRRLESSKPPGDVDMSLSLLQEISALQEKLEVTHTDHQNEVTSLKDHFGTREEMFQKEIKALHAATEKLSKENESLRSKLDHANKENSDVIALWKSKLETAIASHQQAMEELKVSFSKGIGTDSAEFAELKTQIERLRLDYQHEIESLQSKQDSERSAHAKEMESMKAKLMKIIKEKEDSLEAVKARLDTAEDQHLVEMEEMLSKLQEAEIKKEKFASASEEAVSTQTSMQDTVNKLHQKEEQFNMLSSELEKLRENLTDMEAKFKEKDEREDQLVKAKEKLENDIAEIMKMSGDNSSQLTKMNDELRLKERSVEELQLKLTKANENASLLQKSIGEVTLKAEQSQQEAAKKHEEEKKELENKLLELEKKMETSHYQCQDLKAKYEKASSETKIKHEEILQNFQKMLVDTEDKLKAAQEANRDLMQDMEELKSQADKAKAAQTAEDAMQIMEQMTKEKTETLASLEDTKQTNAKLQSELDTLKENNLKTVEELNKSKELLNEENQKMEEFKKEIETLKQAAAQKSQQLSALQEENVKLAEELGRTRDEVTSHQKLEEERSVLNNQLLEMKKSLPSNTLRESEYRKDADEEKASLQKSISLTSALLTEKDAELEKLRNEVTVLRGENASAKSLHSVVQTLESDKVKLELKVKNLELQLKENKRQLSSSSGNTDVQTEEDERAQESQQMIDFLNSVIVDLQRKNQDLKMKVEMMSEAALNGNGEDPNSYDSDDQEKQSKKKPRLFCDICDCFDLHDTEDCPTQAQMSEDPPHSTHHGSRSEERPYCEICEMFGHWATNCNDDETF
# Variants of: B1
# Details: with csk2b_human CSNK2B
row,Variant,effect of a mutation on the interaction
1,S195A,decreasing interaction

# Variants of: B2
# Details: with csk2b_human CSNK2B
# Target sequence in this assay (P67870 whole entry): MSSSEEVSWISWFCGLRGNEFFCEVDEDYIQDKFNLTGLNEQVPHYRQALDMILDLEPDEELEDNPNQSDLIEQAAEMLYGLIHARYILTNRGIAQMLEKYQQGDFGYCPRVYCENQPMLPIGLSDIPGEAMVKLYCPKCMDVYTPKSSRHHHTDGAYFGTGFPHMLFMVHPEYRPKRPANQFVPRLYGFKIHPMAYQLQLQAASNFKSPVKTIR
row,Variant,effect of a mutation on the interaction
1,S194E,increasing interaction

# Variants of: B2
# Details: with dctn1_human DCTN1, Q14203
# Sequence of dctn1_human DCTN1, Q14203 (Q14203 whole entry): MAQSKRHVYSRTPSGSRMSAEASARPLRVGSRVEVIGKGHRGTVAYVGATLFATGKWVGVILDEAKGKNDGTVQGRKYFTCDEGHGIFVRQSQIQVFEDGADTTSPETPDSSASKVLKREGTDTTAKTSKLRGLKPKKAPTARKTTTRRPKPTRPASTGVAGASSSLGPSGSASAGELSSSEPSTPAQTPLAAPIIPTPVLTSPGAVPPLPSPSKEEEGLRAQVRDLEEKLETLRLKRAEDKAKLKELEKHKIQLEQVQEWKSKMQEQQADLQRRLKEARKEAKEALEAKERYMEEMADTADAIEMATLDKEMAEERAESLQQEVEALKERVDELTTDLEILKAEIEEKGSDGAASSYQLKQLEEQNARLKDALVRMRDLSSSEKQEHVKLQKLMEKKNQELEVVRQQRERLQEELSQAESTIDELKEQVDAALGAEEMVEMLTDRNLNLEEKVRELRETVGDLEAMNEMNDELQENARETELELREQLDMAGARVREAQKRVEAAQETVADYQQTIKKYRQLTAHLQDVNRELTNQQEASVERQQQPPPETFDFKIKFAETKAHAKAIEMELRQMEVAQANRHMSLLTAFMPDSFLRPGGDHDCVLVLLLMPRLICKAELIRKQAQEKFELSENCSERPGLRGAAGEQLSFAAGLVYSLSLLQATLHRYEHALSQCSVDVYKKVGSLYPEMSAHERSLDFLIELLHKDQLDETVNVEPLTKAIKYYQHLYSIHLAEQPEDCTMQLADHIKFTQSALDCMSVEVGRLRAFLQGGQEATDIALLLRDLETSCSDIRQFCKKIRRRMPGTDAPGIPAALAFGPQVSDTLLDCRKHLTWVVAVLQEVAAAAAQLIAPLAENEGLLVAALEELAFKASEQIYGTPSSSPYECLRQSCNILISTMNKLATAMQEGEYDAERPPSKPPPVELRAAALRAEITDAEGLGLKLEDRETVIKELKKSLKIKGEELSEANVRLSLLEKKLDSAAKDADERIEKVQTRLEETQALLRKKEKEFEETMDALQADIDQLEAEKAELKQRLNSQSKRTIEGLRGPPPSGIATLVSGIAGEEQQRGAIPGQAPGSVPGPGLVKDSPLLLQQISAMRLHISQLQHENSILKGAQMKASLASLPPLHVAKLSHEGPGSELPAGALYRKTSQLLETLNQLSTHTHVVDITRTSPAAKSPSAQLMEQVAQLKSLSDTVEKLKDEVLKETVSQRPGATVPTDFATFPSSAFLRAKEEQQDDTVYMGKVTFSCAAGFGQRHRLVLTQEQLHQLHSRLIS
row,Variant,effect of a mutation on the interaction
1,S194A,disrupting interaction

# Variants of: B2
# Details: with dctn1_human DCTN1, Q14203
# Remark: another data set of the same source
row,Variant,effect of a mutation on the interaction
1,S1246A,decreasing interaction
